Assay results taken from patent US20170296650A1.

Columns and labels:
gB 69-78 peptide (hCMV) = gB 69-78 peptide (hCMV) (UniProt P06473); experiment: ELISA, gB 69-78 peptide
[1] = biological target: hCMV gH (HEK293T transfectant) (hCMV), P12824; experiment: cell competition; competitor 3G16-biotin; settings: remark: other sources report otherwise
[2] = biological target: hCMV gH (HEK293T transfectant) (hCMV), P12824; experiment: cell competition; competitor 11B12-biotin; settings: remark: other sources report otherwise
[3] = biological target: hCMV gH (HEK293T transfectant) (hCMV), P12824; experiment: cell competition; competitor 13H11-biotin; settings: remark: other sources report otherwise

B1: 6B4 (antibody, V domains shown)
VH: QVQLVESGGGVVQPGRSLRLSCAASGFRFNEFNMHWVRQAPGKGLEWVAVISIDGRHKYNADSVEGRFTISRDNSRNTLYLQMNSLRVEDTALYYCVTDGKAVDGFSGILEFWGQGTPVTVST
VL: EIVLTQSPATLSLSPGERATLSCWASQSVGGYLAWYQQKPGQAPRLLIYDASIRATGIPARFSGSGSGTHFTLTINSLEPEDFAVYYCQQRNNWPPLTFGGGTKVEIK
- EC50 (gB 69-78 peptide (hCMV)): 0.044 µg/mL

B2: 3G16 (antibody, V domains shown)
VH: RAQLVQSAAEMKNPGASVKVSCEASGYTFTGYYVHWMRQAPGQGLEWMGWINPMTGATKSPQKFQGRVTMTRDTSTTATHIELTRLRSDDSAVFFCARGGPTSTRITGKRHFDLWGRGTLITVAS
VL: QSALTQPASVSGSPGESITISCTGTISDVGAYNSVSWYQQHSGTAPELIIYDVTNRPAGVSSRFSGSKSGNTASLTISWLQSEDEAEYYCSSYTTSDTYVFGSGTQVTVL
- Inhibition of binding (%) [1]: 100%
- Inhibition of binding (%) [2]: 0%
- Inhibition of binding (%) [3]: 0%

B3: 11B12 (antibody, V domains shown)
VH: QMQLVQSGPQVKKPGTSVKVSCKASGFTFTSSAMQWVRQARGQRPEWIGWIVLGSGNTNYAQKFQERVTLTRDMSTATAYMELSSLRSEDTAVYYCAADRGRGGYNVYTYWGQGTLVAVSS
VL: EIVMTQSPGTLSLSPGERATLSCRASQTISNTYVAWYQQKPGQAPRLLIYGASSRATGIPDRFSGSGSGTDFTLTIRRLEPEDFAVYYCQQNGQSPWTFGQGTNVEIK
- Inhibition of binding (%) [1]: 0%
- Inhibition of binding (%) [2]: 100%
- Inhibition of binding (%) [3]: 100%

B4: 13H11 (antibody, V domains shown)
VH: QVQLVQSGAEVKKPGASVKVSCKASGYTFTNYYIHWVRQAPGQGLEWMGIIHPSSGGTSYAQKFQGRVTMTRDTSTSTVSMDLSSLRSEDTAVYYCGRAFRILGLSDVFVNDWGQGTVVTVSS
VL: DIQMTQSPSSLSASVGDRVTITCRASQGINNYLAWYQQKPGKVPKLLIYAASTLQSGVPSRFSGSGSGTAFTLTILSLQPEDVATYYCQKYNSAPFTFGPGTKVDIK
- Inhibition of binding (%) [1]: 0%
- Inhibition of binding (%) [2]: 100%
- Inhibition of binding (%) [3]: 100%
